{
  "source": "paper PMC12071589",
  "origin": "cited, not measured here",
  "target": "TROP2 (Homo sapiens) (UniProt P09758)",
  "sequence (P09758 27-274)": "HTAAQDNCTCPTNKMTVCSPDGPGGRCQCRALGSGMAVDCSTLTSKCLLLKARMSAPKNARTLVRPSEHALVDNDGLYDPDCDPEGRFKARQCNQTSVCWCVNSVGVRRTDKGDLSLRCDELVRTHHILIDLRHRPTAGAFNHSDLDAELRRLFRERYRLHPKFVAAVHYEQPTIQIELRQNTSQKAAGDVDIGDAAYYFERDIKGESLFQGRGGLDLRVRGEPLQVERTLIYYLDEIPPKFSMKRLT",
  "data": [
    {"substance": "sacituzumab", "values": [
      {"measurement": "Kd", "value": 0.26, "unit": "nM"}
    ]}
  ]
}
